Values quoted from earlier work as cited in PMC3264399.

Legend:
ephrin-B3 (Homo sapiens) = ephrin-B3 (Homo sapiens) (UniProt Q15768)
ephrin-B2 (Homo sapiens) = ephrin-B2 (Homo sapiens) (UniProt P52799)
CD46 (Homo sapiens) = CD46 (Homo sapiens) (UniProt P15529)
Sequence of CD46 (Homo sapiens) (P15529 35-392): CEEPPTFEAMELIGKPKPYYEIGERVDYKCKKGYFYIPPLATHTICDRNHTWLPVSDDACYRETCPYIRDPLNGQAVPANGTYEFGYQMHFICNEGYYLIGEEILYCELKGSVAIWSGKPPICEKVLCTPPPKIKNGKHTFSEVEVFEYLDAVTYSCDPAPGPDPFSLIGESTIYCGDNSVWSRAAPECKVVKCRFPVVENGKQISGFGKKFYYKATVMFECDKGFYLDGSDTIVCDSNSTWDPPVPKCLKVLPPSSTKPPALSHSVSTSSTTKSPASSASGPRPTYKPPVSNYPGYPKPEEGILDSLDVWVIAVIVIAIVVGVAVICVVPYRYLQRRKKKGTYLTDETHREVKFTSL

Sequence of NiV-G (Q9IH62 whole entry): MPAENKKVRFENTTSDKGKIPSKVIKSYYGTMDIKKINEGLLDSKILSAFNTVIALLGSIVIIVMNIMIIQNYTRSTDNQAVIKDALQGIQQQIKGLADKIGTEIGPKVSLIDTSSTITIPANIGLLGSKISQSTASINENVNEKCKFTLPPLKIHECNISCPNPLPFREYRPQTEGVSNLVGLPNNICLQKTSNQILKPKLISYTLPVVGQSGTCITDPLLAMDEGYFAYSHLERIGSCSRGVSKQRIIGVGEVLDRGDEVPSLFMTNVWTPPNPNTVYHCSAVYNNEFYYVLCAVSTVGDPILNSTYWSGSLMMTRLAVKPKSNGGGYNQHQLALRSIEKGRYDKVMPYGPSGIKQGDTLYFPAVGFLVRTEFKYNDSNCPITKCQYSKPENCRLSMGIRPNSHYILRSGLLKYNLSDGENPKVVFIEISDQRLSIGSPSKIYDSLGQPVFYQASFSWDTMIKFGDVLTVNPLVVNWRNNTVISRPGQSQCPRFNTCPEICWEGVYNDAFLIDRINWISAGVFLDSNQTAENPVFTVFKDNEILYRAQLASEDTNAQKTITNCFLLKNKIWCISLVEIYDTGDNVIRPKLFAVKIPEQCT
Sequence of MeV-H (P08362 157-607): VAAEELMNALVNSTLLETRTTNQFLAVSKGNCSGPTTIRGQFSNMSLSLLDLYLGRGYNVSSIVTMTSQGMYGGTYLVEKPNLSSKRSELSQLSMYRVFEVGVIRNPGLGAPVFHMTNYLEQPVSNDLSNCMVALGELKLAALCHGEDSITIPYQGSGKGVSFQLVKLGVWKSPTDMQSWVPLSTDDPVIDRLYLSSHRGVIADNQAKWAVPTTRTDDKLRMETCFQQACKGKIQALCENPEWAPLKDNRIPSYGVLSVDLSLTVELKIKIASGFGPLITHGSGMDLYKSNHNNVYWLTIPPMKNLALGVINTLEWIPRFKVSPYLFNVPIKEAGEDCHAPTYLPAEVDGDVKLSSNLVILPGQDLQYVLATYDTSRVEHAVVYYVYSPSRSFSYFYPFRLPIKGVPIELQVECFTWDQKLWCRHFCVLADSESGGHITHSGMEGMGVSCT
Sequence of ephrin-B3 (Homo sapiens) (Q15768 28-340): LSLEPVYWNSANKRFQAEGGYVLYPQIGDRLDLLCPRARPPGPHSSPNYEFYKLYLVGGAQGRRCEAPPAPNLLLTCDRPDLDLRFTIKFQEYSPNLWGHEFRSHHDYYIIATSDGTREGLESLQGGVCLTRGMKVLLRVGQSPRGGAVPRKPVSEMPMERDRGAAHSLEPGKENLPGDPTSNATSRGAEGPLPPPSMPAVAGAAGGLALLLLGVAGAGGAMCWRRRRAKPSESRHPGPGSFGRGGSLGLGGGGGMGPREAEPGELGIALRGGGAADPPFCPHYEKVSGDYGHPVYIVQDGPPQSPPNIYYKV
Sequence of ephrin-B2 (Homo sapiens) (P52799 28-333): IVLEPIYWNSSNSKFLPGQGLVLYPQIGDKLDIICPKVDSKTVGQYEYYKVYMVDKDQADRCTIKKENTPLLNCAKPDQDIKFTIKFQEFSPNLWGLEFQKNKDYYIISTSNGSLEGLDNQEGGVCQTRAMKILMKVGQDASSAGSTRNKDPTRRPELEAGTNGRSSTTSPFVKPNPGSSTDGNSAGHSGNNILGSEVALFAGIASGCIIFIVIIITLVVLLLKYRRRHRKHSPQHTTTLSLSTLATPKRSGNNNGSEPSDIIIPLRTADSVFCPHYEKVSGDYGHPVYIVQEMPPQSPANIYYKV

Substance | Kd (ephrin-B3 (Homo sapiens)) | Kd (ephrin-B2 (Homo sapiens)) | Kd (CD46 (Homo sapiens))
NiV-G (from UniProt Q9IH62) | 0.58 nM | 0.06 nM | 
MeV-H (from UniProt P08362) |  |  | 2200 nM
